Results reported in the RNAGym collection of RNA variant scans (doi:10.1021/acssynbio.7b00057).

B1: Pistol ribozyme (parent)
chain: GGGUCGUUGUUCCAUAAUCGCGUGGAUAUGGCACGCAAGUUUCUACCGGGCACCGUAAAUGUCCGACUGGAGCCGUUCGGGCGGCUAUAAACAGACCUCAGGCCCGAAGCGUGGCGGCACCUGCCGCCGGUGGUAAAAAAGAUCGGAAGAGCACACGUCU

Variants of: B1
Test: aptazyme ON/OFF ratio, guanine; higher = stronger switching; co-transcriptional cleavage with and without guanine

Variant | aptazyme ON/OFF ratio
GGGUCGAGGACGCAUAAUCGCGUGGAUAUGGCACGCAAGUUUCUACCGGGCACCGUAAAUGUCCGACUGGAGCCGUUCGGGCGGCUAUAAACAGACCUCAGGCCCGAAGCGUGGCGGCACCUGCCGCCGGUGGUAAAAAAGAUCGGAAGAGCACACGUCU [U7A U8G U10A U11C C12G] | 1.15
GGGUCGAGGACACAUAAUCGCGUGGAUAUGGCACGCAAGUUUCUACCGGGCACCGUAAAUGUCCGACUGGAGCCGUUCGGGCGGCUAUAAACAGACCUCAGGCCCGAAGCGUGGCGGCACCUGCCGCCGGUGGUAAAAAAGAUCGGAAGAGCACACGUCU [U7A U8G U10A U11C C12A] | 1.49
GGGUCGAGGAAAUAUAAUCGCGUGGAUAUGGCACGCAAGUUUCUACCGGGCACCGUAAAUGUCCGACUGGAGCCGUUCGGGCGGCUAUAAACAGACCUCAGGCCCGAAGCGUGGCGGCACCUGCCGCCGGUGGUAAAAAAGAUCGGAAGAGCACACGUCU [U7A U8G U10A U11A C12A C13U] | 1.12
GGGUCGAGGAAUGAUAAUCGCGUGGAUAUGGCACGCAAGUUUCUACCGGGCACCGUAAAUGUCCGACUGGAGCCGUUCGGGCGGCUAUAAACAGACCUCAGGCCCGAAGCGUGGCGGCACCUGCCGCCGGUGGUAAAAAAGAUCGGAAGAGCACACGUCU [U7A U8G U10A U11A C12U C13G] | 1.25
GGGUCGAGGAAUUAUAAUCGCGUGGAUAUGGCACGCAAGUUUCUACCGGGCACCGUAAAUGUCCGACUGGAGCCGUUCGGGCGGCUAUAAACAGACCUCAGGCCCGAAGCGUGGCGGCACCUGCCGCCGGUGGUAAAAAAGAUCGGAAGAGCACACGUCU [U7A U8G U10A U11A C12U C13U] | 1.28
GGGUCGAGGAAUAAUAAUCGCGUGGAUAUGGCACGCAAGUUUCUACCGGGCACCGUAAAUGUCCGACUGGAGCCGUUCGGGCGGCUAUAAACAGACCUCAGGCCCGAAGCGUGGCGGCACCUGCCGCCGGUGGUAAAAAAGAUCGGAAGAGCACACGUCU [U7A U8G U10A U11A C12U C13A] | 1.72
GGGUCGAGGAACGAUAAUCGCGUGGAUAUGGCACGCAAGUUUCUACCGGGCACCGUAAAUGUCCGACUGGAGCCGUUCGGGCGGCUAUAAACAGACCUCAGGCCCGAAGCGUGGCGGCACCUGCCGCCGGUGGUAAAAAAGAUCGGAAGAGCACACGUCU [U7A U8G U10A U11A C13G] | 1.38
GGGUCGAGGAACAAUAAUCGCGUGGAUAUGGCACGCAAGUUUCUACCGGGCACCGUAAAUGUCCGACUGGAGCCGUUCGGGCGGCUAUAAACAGACCUCAGGCCCGAAGCGUGGCGGCACCUGCCGCCGGUGGUAAAAAAGAUCGGAAGAGCACACGUCU [U7A U8G U10A U11A C13A] | 1.28
GGGUCGAGGAACUAUAAUCGCGUGGAUAUGGCACGCAAGUUUCUACCGGGCACCGUAAAUGUCCGACUGGAGCCGUUCGGGCGGCUAUAAACAGACCUCAGGCCCGAAGCGUGGCGGCACCUGCCGCCGGUGGUAAAAAAGAUCGGAAGAGCACACGUCU [U7A U8G U10A U11A C13U] | 1.1
GGGUCGAGGAAGGAUAAUCGCGUGGAUAUGGCACGCAAGUUUCUACCGGGCACCGUAAAUGUCCGACUGGAGCCGUUCGGGCGGCUAUAAACAGACCUCAGGCCCGAAGCGUGGCGGCACCUGCCGCCGGUGGUAAAAAAGAUCGGAAGAGCACACGUCU [U7A U8G U10A U11A C12G C13G] | 1.26
GGGUCGAGGAAGUAUAAUCGCGUGGAUAUGGCACGCAAGUUUCUACCGGGCACCGUAAAUGUCCGACUGGAGCCGUUCGGGCGGCUAUAAACAGACCUCAGGCCCGAAGCGUGGCGGCACCUGCCGCCGGUGGUAAAAAAGAUCGGAAGAGCACACGUCU [U7A U8G U10A U11A C12G C13U] | 1.63
GGGUCGAGGAAGAAUAAUCGCGUGGAUAUGGCACGCAAGUUUCUACCGGGCACCGUAAAUGUCCGACUGGAGCCGUUCGGGCGGCUAUAAACAGACCUCAGGCCCGAAGCGUGGCGGCACCUGCCGCCGGUGGUAAAAAAGAUCGGAAGAGCACACGUCU [U7A U8G U10A U11A C12G C13A] | 1.56
GGGUCGAGGACAAAUAAUCGCGUGGAUAUGGCACGCAAGUUUCUACCGGGCACCGUAAAUGUCCGACUGGAGCCGUUCGGGCGGCUAUAAACAGACCUCAGGCCCGAAGCGUGGCGGCACCUGCCGCCGGUGGUAAAAAAGAUCGGAAGAGCACACGUCU [U7A U8G U10A U11C C12A C13A] | 1.26
GGGUCGAGGACAGAUAAUCGCGUGGAUAUGGCACGCAAGUUUCUACCGGGCACCGUAAAUGUCCGACUGGAGCCGUUCGGGCGGCUAUAAACAGACCUCAGGCCCGAAGCGUGGCGGCACCUGCCGCCGGUGGUAAAAAAGAUCGGAAGAGCACACGUCU [U7A U8G U10A U11C C12A C13G] | 1.26
GGGUCGAGGACAUAUAAUCGCGUGGAUAUGGCACGCAAGUUUCUACCGGGCACCGUAAAUGUCCGACUGGAGCCGUUCGGGCGGCUAUAAACAGACCUCAGGCCCGAAGCGUGGCGGCACCUGCCGCCGGUGGUAAAAAAGAUCGGAAGAGCACACGUCU [U7A U8G U10A U11C C12A C13U] | 1.53
GGGUCGAGGAAGCAUAAUCGCGUGGAUAUGGCACGCAAGUUUCUACCGGGCACCGUAAAUGUCCGACUGGAGCCGUUCGGGCGGCUAUAAACAGACCUCAGGCCCGAAGCGUGGCGGCACCUGCCGCCGGUGGUAAAAAAGAUCGGAAGAGCACACGUCU [U7A U8G U10A U11A C12G] | 1.13
GGGUCGAGGAAUCAUAAUCGCGUGGAUAUGGCACGCAAGUUUCUACCGGGCACCGUAAAUGUCCGACUGGAGCCGUUCGGGCGGCUAUAAACAGACCUCAGGCCCGAAGCGUGGCGGCACCUGCCGCCGGUGGUAAAAAAGAUCGGAAGAGCACACGUCU [U7A U8G U10A U11A C12U] | 1.38
GGGUCGAGGACCCAUAAUCGCGUGGAUAUGGCACGCAAGUUUCUACCGGGCACCGUAAAUGUCCGACUGGAGCCGUUCGGGCGGCUAUAAACAGACCUCAGGCCCGAAGCGUGGCGGCACCUGCCGCCGGUGGUAAAAAAGAUCGGAAGAGCACACGUCU [U7A U8G U10A U11C] | 1.11
